Measurements published in US20210079088A1 (published 2021).

T1: soluble human IL-4Rα (sIL-4Rα; PEPRO TECH, Catalog Number: 200-04R) (human, UniProt P24394 26-232)
T1 construct: Bought protein; also called shIL-4Rα; soluble hIL-4 Rα
T1 sequence: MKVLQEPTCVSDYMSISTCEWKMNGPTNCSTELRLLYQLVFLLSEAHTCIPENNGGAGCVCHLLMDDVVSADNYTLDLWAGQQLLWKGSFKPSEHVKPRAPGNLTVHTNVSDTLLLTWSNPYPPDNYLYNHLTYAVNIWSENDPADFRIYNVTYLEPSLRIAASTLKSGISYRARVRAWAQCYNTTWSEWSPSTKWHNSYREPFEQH


target: T1, soluble human IL-4Rα (sIL-4Rα; PEPRO …); assay: ELISA, coated sIL-4Rα, culture supernatant
Procedure: Sample to be tested: For each antibody of the present invention, 10 μl and 2 μl of the culture supernatant of Expi293 cells expressing the antibody after transient transfection (the medium was Expi293 Expression Medium, Invitrogen, Catalog Number: A1435102; suspension culture was performed for 4 days at 100 rpm in a 8% CO2 incubator) were respectively added to 990 μl and 998 μl of PBS to prepare antibody samples to be tested of 1:100 and 1:500 dilutions.
100 μl of 100 μg/ml sIL-4Rα solution was added to 9.90 ml of PBS, mixed up and down, and then an antigen coating buffer of 1.0 μg/ml was obtained. The prepared antigen coating buffer was added to a 96-well ELISA plate (Corning) with a volume of 100 μl per well. The 96-well ELISA plate was incubated overnight in a refrigerator at 4° C. On the next day, the solution therein was discarded, and PBS containing 2% BSA was added to the 96-well ELISA plate row by row with a volume of 300 μl per well. The 96-well ELISA plate was incubated for 2 hours in a refrigerator at 4° C. Then the PBS containing 2% BSA was discarded and the plate was washed 3 times with PBST. Diluted antibodies to be tested were sequentially added to the corresponding wells, while the normal cell culture supernatants, as negative control samples, were added too. Three duplicate wells were made for each sample with a volume of 100 μl per well. The ELISA plate was wrapped with preservative film (or covered) and incubated for 1 h at 10° C. in a constant temperature incubator. Subsequently, the 96-well ELISA plate was taken out, and the solution therein was discarded. After washing with PBST for 3 times, TMB solution (Solarbio, Catalog Number: PR1200) was added to the 96-well ELISA plate row by row with a volume of 100 μl per well. The 96-well ELISA plate was placed at room temperature for 5 minutes, and 2 M H2SO4 solution was added in immediately to terminate the reaction. The 96-well ELISA plate was placed in flexstation 3 (Molecular Devices), the values of OD450 were read, and the data were collected, calculated and analyzed. Results were expressed relative to the affinity of control antibody 1.

Row | Binder | OD450/OD450 Control antibody 1
1 | L1020H1007 (antibody, V domains shown) VH: EVQLVQSGGGLVHPGGSLRLSCAGSGFTFSRNAMFWVRQAPGKGLEWVSGIGTGGATSYADSVKGRFTISRDNAKNSLYLQMNSLRAEDMAVYYCARGRYYFDYWGQGTLVTVSS VL: EIVLTQSPGTLSLSPGERATLSCRASQSVSSSYLAWYQQKPGQAPRLLIYGASSRATGIPDRFSGSGSGTDFTLTISRLEPEDFAVYYCQQYDHSAGWTFGQGTKVEIK | 0.4 ratio to control antibody 1
2 | L1020H1031 (antibody, V domains shown) VH: EVQLVESGGGLVQPGGSLRLSCAASGFTFSRNAMFWVRQAPGKGLEWVSGIGTGGATSYADSVKGRFTISRDNAKNSLYLQMNSLRAEDTAVYYCARGRYYFDYWGQGTLVTVSS VL: EIVLTQSPGTLSLSPGERATLSCRASQSVSSSYLAWYQQKPGQAPRLLIYGASSRATGIPDRFSGSGSGTDFTLTISRLEPEDFAVYYCQQYDHSAGWTFGQGTKVEIK | 1.12 ratio to control antibody 1
3 | L1020H1020 (antibody, V domains shown) VH: EVQLVQSGGGLVHPGGSLRLSCAGSGFTFSRNAMFWVRQAPGKGLEWVSGIGTGGATSYADSVKGRFTISRDNAKNSLYLQMNSLRAEDMAVYYCARGRYYFPWWGQGTLVTVSS VL: EIVLTQSPGTLSLSPGERATLSCRASQSVSSSYLAWYQQKPGQAPRLLIYGASSRATGIPDRFSGSGSGTDFTLTISRLEPEDFAVYYCQQYDHSAGWTFGQGTKVEIK | 0.26 ratio to control antibody 1
4 | L1020H1027 (antibody, V domains shown) VH: EVQLVESGGGLVHPGGSLRLSCAASGFTFSRNAMFWVRQAPGKGLEWVSGIGTGGATSYADSVKGRFTISRDNAKNSLYLQMNSLRAEDTAVYYCARGRYYFPWWGQGTLVTVSS VL: EIVLTQSPGTLSLSPGERATLSCRASQSVSSSYLAWYQQKPGQAPRLLIYGASSRATGIPDRFSGSGSGTDFTLTISRLEPEDFAVYYCQQYDHSAGWTFGQGTKVEIK | 0.4 ratio to control antibody 1
5 | L1020H1016 (antibody, V domains shown) VH: EVQLVQSGGGLVHPGGSLRLSCAGSGFTFSRNAMFWVRQAPGKGLEWVSGIGTGGATNYADSVKGRFTISRDNAKNSLYLQMNSLRAEDMAVYYCARGRYYFPWWGQGTLVTVSS VL: EIVLTQSPGTLSLSPGERATLSCRASQSVSSSYLAWYQQKPGQAPRLLIYGASSRATGIPDRFSGSGSGTDFTLTISRLEPEDFAVYYCQQYDHSAGWTFGQGTKVEIK | 0.8 ratio to control antibody 1
6 | L1021H1000 (antibody, V domains shown) VH: EVQLVQSGGGLVHPGGSLRLSCAGSGFTFSRNAMFWVRQAPGKGLEWVSGIGTGGATNYADSVKGRFTISRDNAKNSLYLQMNSLRAEDMAVYYCARGRYYFDYWGQGTLVTVSS VL: EIVLTQSPGTLSLSPGERATLSCRASQSVSSSYLAWYQQKPGQAPRLLIFGASSRAPGIPDRFSGSGSGTDFTLTISRLEPEDFAVYYCQQYDHSAGWTFGQGTKVEIK | 2.42 ratio to control antibody 1
7 | L1021H1007 (antibody, V domains shown) VH: EVQLVQSGGGLVHPGGSLRLSCAGSGFTFSRNAMFWVRQAPGKGLEWVSGIGTGGATSYADSVKGRFTISRDNAKNSLYLQMNSLRAEDMAVYYCARGRYYFDYWGQGTLVTVSS VL: EIVLTQSPGTLSLSPGERATLSCRASQSVSSSYLAWYQQKPGQAPRLLIFGASSRAPGIPDRFSGSGSGTDFTLTISRLEPEDFAVYYCQQYDHSAGWTFGQGTKVEIK | 0.44 ratio to control antibody 1
8 | L1020H1029 (antibody, V domains shown) VH: EVQLVESGGGLVQPGGSLRLSCAASGFTFSRNAMFWVRQAPGKGLEWVSGIGTGGATSYADSVKGRFTISRDNAKNSLYLQMNSLRAEDMAVYYCARGRYYFPWWGQGTLVTVSS VL: EIVLTQSPGTLSLSPGERATLSCRASQSVSSSYLAWYQQKPGQAPRLLIYGASSRATGIPDRFSGSGSGTDFTLTISRLEPEDFAVYYCQQYDHSAGWTFGQGTKVEIK | 1.01 ratio to control antibody 1

Results, then the binder that gave them:

Row | OD450/OD450 Control antibody 1 | Binder
9 | 0.9 ratio to control antibody 1 | L1021H1031 (antibody, V domains shown) VH: EVQLVESGGGLVQPGGSLRLSCAASGFTFSRNAMFWVRQAPGKGLEWVSGIGTGGATSYADSVKGRFTISRDNAKNSLYLQMNSLRAEDTAVYYCARGRYYFDYWGQGTLVTVSS VL: EIVLTQSPGTLSLSPGERATLSCRASQSVSSSYLAWYQQKPGQAPRLLIFGASSRAPGIPDRFSGSGSGTDFTLTISRLEPEDFAVYYCQQYDHSAGWTFGQGTKVEIK
10 | 0.23 ratio to control antibody 1 | L1024H1007 (antibody, V domains shown) VH: EVQLVQSGGGLVHPGGSLRLSCAGSGFTFSRNAMFWVRQAPGKGLEWVSGIGTGGATSYADSVKGRFTISRDNAKNSLYLQMNSLRAEDMAVYYCARGRYYFDYWGQGTLVTVSS VL: EIVLTQSPGTLSLSPGERATLSCRASQSVSNSYLAWYQQKPGQAPRLLIFGASSRAPGIPDRFSGSGSGTDFTLTISRLEPEDFAVYYCQQYDHSAGWTFGQGTKVEIK
11 | 0.69 ratio to control antibody 1 | L1024H1000 (antibody, V domains shown) VH: EVQLVQSGGGLVHPGGSLRLSCAGSGFTFSRNAMFWVRQAPGKGLEWVSGIGTGGATNYADSVKGRFTISRDNAKNSLYLQMNSLRAEDMAVYYCARGRYYFDYWGQGTLVTVSS VL: EIVLTQSPGTLSLSPGERATLSCRASQSVSNSYLAWYQQKPGQAPRLLIFGASSRAPGIPDRFSGSGSGTDFTLTISRLEPEDFAVYYCQQYDHSAGWTFGQGTKVEIK
12 | 0.16 ratio to control antibody 1 | L1022H1000 (antibody, V domains shown) VH: EVQLVQSGGGLVHPGGSLRLSCAGSGFTFSRNAMFWVRQAPGKGLEWVSGIGTGGATNYADSVKGRFTISRDNAKNSLYLQMNSLRAEDMAVYYCARGRYYFDYWGQGTLVTVSS VL: EIVLTQSPGTLSLSPGERATLSCRASQSVSNSYLAWYQQKPGQAPRLLIYGASSRATGIPDRFSGSGSGTDFTLTISRLEPEDFAVYYCQQYDHSAGWTFGQGTKVEIK
13 | 1 ratio to control antibody 1 | L1021H1029 (antibody, V domains shown) VH: EVQLVESGGGLVQPGGSLRLSCAASGFTFSRNAMFWVRQAPGKGLEWVSGIGTGGATSYADSVKGRFTISRDNAKNSLYLQMNSLRAEDMAVYYCARGRYYFPWWGQGTLVTVSS VL: EIVLTQSPGTLSLSPGERATLSCRASQSVSSSYLAWYQQKPGQAPRLLIFGASSRAPGIPDRFSGSGSGTDFTLTISRLEPEDFAVYYCQQYDHSAGWTFGQGTKVEIK
14 | 0.24 ratio to control antibody 1 | L1021H1020 (antibody, V domains shown) VH: EVQLVQSGGGLVHPGGSLRLSCAGSGFTFSRNAMFWVRQAPGKGLEWVSGIGTGGATSYADSVKGRFTISRDNAKNSLYLQMNSLRAEDMAVYYCARGRYYFPWWGQGTLVTVSS VL: EIVLTQSPGTLSLSPGERATLSCRASQSVSSSYLAWYQQKPGQAPRLLIFGASSRAPGIPDRFSGSGSGTDFTLTISRLEPEDFAVYYCQQYDHSAGWTFGQGTKVEIK
15 | 0.63 ratio to control antibody 1 | L1021H1016 (antibody, V domains shown) VH: EVQLVQSGGGLVHPGGSLRLSCAGSGFTFSRNAMFWVRQAPGKGLEWVSGIGTGGATNYADSVKGRFTISRDNAKNSLYLQMNSLRAEDMAVYYCARGRYYFPWWGQGTLVTVSS VL: EIVLTQSPGTLSLSPGERATLSCRASQSVSSSYLAWYQQKPGQAPRLLIFGASSRAPGIPDRFSGSGSGTDFTLTISRLEPEDFAVYYCQQYDHSAGWTFGQGTKVEIK
16 | 0.9 ratio to control antibody 1 | L1024H1031 (antibody, V domains shown) VH: EVQLVESGGGLVQPGGSLRLSCAASGFTFSRNAMFWVRQAPGKGLEWVSGIGTGGATSYADSVKGRFTISRDNAKNSLYLQMNSLRAEDTAVYYCARGRYYFDYWGQGTLVTVSS VL: EIVLTQSPGTLSLSPGERATLSCRASQSVSNSYLAWYQQKPGQAPRLLIFGASSRAPGIPDRFSGSGSGTDFTLTISRLEPEDFAVYYCQQYDHSAGWTFGQGTKVEIK
17 | 0.29 ratio to control antibody 1 | L1021H1027 (antibody, V domains shown) VH: EVQLVESGGGLVHPGGSLRLSCAASGFTFSRNAMFWVRQAPGKGLEWVSGIGTGGATSYADSVKGRFTISRDNAKNSLYLQMNSLRAEDTAVYYCARGRYYFPWWGQGTLVTVSS VL: EIVLTQSPGTLSLSPGERATLSCRASQSVSSSYLAWYQQKPGQAPRLLIFGASSRAPGIPDRFSGSGSGTDFTLTISRLEPEDFAVYYCQQYDHSAGWTFGQGTKVEIK
